The text below walks through data of article PMC3040262.

A word on the stoichiometry N: it is the number of molecules, sites or subunits per partner or assembly.

The experiment addresses PP1α_(7-330), His6-tag removed by TEV protease, P62136. Description: SEC.

Chain of PP1α_(7-330), His6-tag removed by TEV protease, P62136 (P62136 7-330): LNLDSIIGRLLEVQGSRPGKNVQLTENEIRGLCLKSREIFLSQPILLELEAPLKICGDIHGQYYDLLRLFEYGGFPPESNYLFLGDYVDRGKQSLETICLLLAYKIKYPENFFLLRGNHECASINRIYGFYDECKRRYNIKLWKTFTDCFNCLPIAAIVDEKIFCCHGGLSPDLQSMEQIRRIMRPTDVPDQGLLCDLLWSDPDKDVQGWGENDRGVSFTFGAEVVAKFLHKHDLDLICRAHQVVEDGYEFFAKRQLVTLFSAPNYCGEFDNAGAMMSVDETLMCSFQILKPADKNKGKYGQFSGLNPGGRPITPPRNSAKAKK

B1: I-2_(9-164) C85S (domain or fragment)
chain: PIKGILKNKTSTTSSMVASAEQPRGNVDEELSKKSQKWDEMNILATYHPADKDYGLMKIDEPSTPYHSMMGDDEDASSDTEATEAMAPDILARKLAAAEGLEPKYRIQEQESSGEEDSDLSPEEREKKRQFEMKRKLHYNEGLNIKLARQLISKDL
modifications: not checked
Turning to B1, the stoichiometry N was 1.
